Experimental findings from the DeepSol protein solubility set are described below.

The nature of this data set: soluble on expression in E. coli; label from the status in PepcDB or PDB records.
Take “MGSDKIHHHHHHMEGHIVITGATGVIGSEVARRLIKSGREVVVFARSPQSAAAKVPGAADYVRWDSDMAPDGWSSSIDGAYAVIHLAGRPLLETRWTEEHKVACYDSRIKGTRALVAAMASASVKPKVFVSSSAIGYYGSFDRCEETDPLTEKAAPGKDFLAKICFDWEKEARPAETLGTRVVLLRTGIVLSTKGGMLQKMMIPFSYFVGGPVGSGDQCLSWIHLDDEVSIILQALDNADWSGPVNAVAPEPVSMKAFADSLGLVMHRPSLFPVPKLAVQILLGEGADYAVKGQKVSPEFLKERDFHFAWPSLNEALADLVSRGI”: the “soluble on expression in E. coli” value is given as “not soluble”. For “MNDVYAEAKLNKPDFHTAYTLKKDDGGAIALGEGSTGTVTEVTDPEAIATTVVEWTVTPAEALALVKKSKTEMFATVTYESVDGTRGDITITMKASIAMPSGVIKNDQKITEAWSPDKSYVKADVKEPVTVAVTDFKLDLFDVFEGRKVVVSDVTEANFPSFTKDKLTAKFIFSGAKDVTIGTDKYTFTVTANGTQLNASKNSATATKIATIDADGIITYNKADENAHALLNKSAYNVDPFTVGIEIVVTNECDEILPLTGNKFDVKFLRPINVVDLKSAELQDATTGTAKIDMSKLLGLTDWRGQAFAVAPIDFYTYYGVTGSAISIDKDQIMTTLNASEAAPKLLKDVAPNMSINYTCDLQKIGGDITYGDLVYANGKFTINAPFKLFIPVTVKYTFGEVTSTVTLTITPTHQ”, the “soluble on expression in E. coli” value was “not soluble”.

Take “MAGDPMIPVKNDPIDTRLAEMHEELRDLRNFPDSEFVGIIRELGFKCELCARCCTREFNDHVFLLDSDLERVRSIDPDAVTPAPYYEFCDQNGRFYVSGYALKTKPDGSCIFLENKRCRIYESRPSICRVYPHMLHREADETGKVDWRQISGLNEHGSYHSDLDDPACKEIALETRAYEEAYLQQVIGFFEAVKAHFRTNGLKHIQRTYDRKMREFLKGECDLEIFVYCKGGFEKQKLAKESERLEHHHHHH”: the “soluble on expression in E. coli” value is “soluble”. Take “MIETKRQQERVILLGVELQTTEHFDMSMTELANLAKTAGVKVMASFSQKRERYDSKTFIGSGKLDEIKAIVEADEIDAVIVNNRLTARQNANLEAVLEVKVIDRMQLILDIFAMRARSHEGKLQVHLAQLKYMLPRLVGQGIMLSRQAGGIGSRGPGESQLELNRRSIRHQIADIERQLTQVEKNRQTIRDRRVGSDTFKIGLIGYTNAGKSTIMNLLTDDSHYEANELFATLDATTKQLYLENQFQATLTDTVGFIQDLPTELVAAFKSTLEESKYVDLLLHVIDASDPNHSEQEKVVLNLLKELDMLNIPRLAIYNKVDIAEQFTATAFPNIRISARSKDSKILLRRLIIDQIRDQFVPFRIKVHQDKAYKLYDLNRVALLDHYTFDQEIEDISGYISPKQQWRLDDFYELEHHHHHH”: the “soluble on expression in E. coli” value is recorded as “soluble”.

Consider “MDITLRTLTENDLPFVKDIYDYYTLHTTVVYFVHCASIDELKNYIPVGDPVYRSFIIETPEGAPCGFCYFARFKPREAFRISVELTLYLKPEFTGRGYGKQAILRLEEIIRQEGFSNIMALISGENEASIRLFEKCGFECCANIRQVAEKFGKKLDLRMYQKIISDNSHLTP”, for which the “soluble on expression in E. coli” value is reported as “not soluble”. With “MARQTKPLSVKEIESAKPKEADYVLYDGDGLELLIKSSGSKIWQFRYIRPVTKTRAKKSIGPYPSVTLADARNYRAESRSLLAKQIDPQEHQQEQLRSSLEAKTNTFQLVAERWWNVKKASVTEDYAEDIWRSLERDVFPAIGDVSVTDIKAHTLVQAVQPVQARGALETVRRLCQRINEVMIYAQNTGLIDAVPSVNIGKAFEKPQKKNMPSIRPDQLSQLMQTMRTASISLSTRCLFMWQLLTITRPAEAAEARWEEVDIEAQEWKIPAARMKMNRDHTVPLSDEAIAVLEMMKPLSGNREFIFPSRIKPNQPMNSQTVNASLKRAGFGGVLVSHGLRSIASTALNEQGFPPDAIEAALAHVDKNEVRRAYNRSDYLEQRRPMMQWWANFVMAADRGSMIEGGIKGMKLVG”, the “soluble on expression in E. coli” value is reported as “not soluble”. Turning to “MPKKPLIDQLHHEDSWRLFRILAEFVEGFETLSELQVPLVSVFGSARFGEGHPAYEAGYRLGRALAEAGFGVVTGGGPGVMEAVNRGAYEAGGVSVGLNIELPHEQKPNPYQTHALSLRYFFVRKVLFVRYAVGFVFLPGGFGTLDELSEVLVLLQTEKVHRFPVFLLDRGYWEGLVRWLAFLRDQKAVGPEDLQLFRLTDEPEEVVQALKAEAPPR”, the “soluble on expression in E. coli” value is recorded as “soluble”. In the case of “MAHKGTESKEQIWPYKITIGICAMNRKATSKPMRAIMKKIIDFYGQWVDSFIFPEQVIINEPVENWPLCHCLVSFHSTEFPLEKAIAYVKLRNPYVINNLDRQYDLLDRRTVFKILSDNGIEHPRHGYVIRGRPNEPDTELVEHPDHIEVNGEVFNKPFVEKPISSEDHNVYIYYPSSVGGGSQRLFRKINNRSSWYSPKSEVRKEGSYIYEEFIPADGTDVKVYAVGPFYAHAEARKAPGLDGKVERDSDGKEVRYPVILSNKEKQIAKKIVLAFGQTVCGFDLLRANGKSYVCDVNGFSFVKTSTKYYEDTAKILGNQIVRHYAKSKNWRVPSDMPQPPILDLGLGDDPPMITTPSGKLAELRCVVAVIRHGDRTPKQKMKLIVTDQRFFALFEKYDGYKKHEIKMKKPNQLMEVLELARALVIEKQRDRHQILEKLREGTGEEEIHKSEHDLEVCEEEMKKWEQMRTVLEMYGHFSGINRKVQMKYLKERETKTSDEELRREGPALLLILKWGGELTTAGNMQAEALGRLFRTLYPGIRRTDGKSSPEDTQGLGFLRLHSTYRHDLKIYASDEGRVQTTAAAFAKGLLALEGELTPILMQMVKSANTDGLLDDDCQARLYQTELKRYLHKALQADRDFTPQDYLELNPNGLRAITAAMEFIKNPRKMCHEIAGYVEKMCGVIVEYSQTRPTGSTLYLQESMDLAQRRWNKELREFRRKNKHGEVEFDISKIPDIYDNIKYDMEHNPDLCINNEVEFERMYVCVKNMADIVVPQEYGIKTENKMVIAQRVCTPLLRKIRNDLHRCLENKESEETQTRLDPRASQGIATPFRHVRTRLYFTSESHIHTLMNLIRYGNLCSVDDKKWQRAMNFLSGVTEFNYMTQVVLMVYEDSRKENDEADTGPRFHIEILFSPGLYPCFLTEKERIYETRFNLSTNPKPATSSRSSGRESRDTNDSASSSTEGRRPSIEKVVTVVTPTQLSTPSVTNDDLSISSNAESTAAESTGLVNTTTKTHNDSEDDLNDVESVNLVALDELNNTTKASQRGSFHVTEPIQIDEKTRRYFPYRFKHHTAQLLTGMSGGGVHMQNRLISTDVLTGKFGDHDNKKNSRKDFGAGTAVLSTAVIARSSSAPRLMTYESEDFSVGEIKRFWPPLRSLETLHDSINLSQFDGFLERLIKGALTPLPSPPKTPLPSALSCDAINKTPTQDEVEKVIGKLAPTSSTD” it was “not soluble”; in that of “MSLRFLADIEEYIGFEIPKIEAPSQEEVARKKPEFLAKLNDRPESKKDKSEELNKDIMKLYFNGGKKKKIRAVDFVGTIAKIDGVSADDIGIITIMDNASYVEILNGKGPHVLKVMKNTTVKGKQLKVNKANKEGHHHHHH”, “not soluble”; in that of “MGEKLLMKGNEAIAEAALRAGCRHYFGYPITPQTEIAHYLAKKMPEVGGTFIQAESEVAAINMVYGAASAGARVLTSSSSPGISLKQEGLSYLAGAELPAVVVNIVRCGPGLGGILPAQGDYFQAVKGGGHGDYKMVVLAPSSVQELYELTVEAFNIADRYRIVSMIMGDGILGQMMEAVEFKDVENIEKIDKPWATTGTQMKREHNTITSIYIQPEVLEKHNQKLQAKYRLIEERETRVESYNCENADIIVTAFGTVARIVKNVIKMAEKEGIKVGLIRPITLWPFPTKEYEKYADVPKAFLTVELNAGQMVEDVRLAVNGKKPVYFHGRMGGMIPTQKEILDKIKEILNN”, “not soluble”. As for “MRYTMDIEFSQIHEMVYMHDIVNSDSKKKPRIPLKKFLNAENVLTQTTSWTLNSRYVNVNSVNKVNVKSKVKNSYISRSVNDEFSLTDDEINSFKETLVLSSIDSLSKLVLNNPLSVLFTSTVRRNNNRAKMNVEFDSWICTRCCLEHHHHHH”, the “soluble on expression in E. coli” value was “soluble”.

For “MKSIRSRKSRRLRANRRKKRVHQPKLRQKPAKASQSRSRRMSRTDYISENVYIVLVYPKYQGNIGAVARSMWNSGLRHLIIIGNRPDDEAFARSMGGRFILENAEIYDDFASVISRFNVIAATSSTASSNEKHFRRLPLTPEKFWEEMSDQGGKIALVFGREDDGLRNEEIEKCNYFINIPGNPEYPVYNLSHAVAIILYVMFTRFNPPENIEIRAIEPDHEDLMLRNIIEVMRLTSYPEHKIRNTELLLRRLIARSRMSDREYFRMMGVIRRVKESLQRPLENESDHQRN”, the “soluble on expression in E. coli” value is “not soluble”. As for “MMSKQPTSKRQWRDGAAPSAKKTAKPFKSKARPKDETGKTASQPYGQKASDGIKPQNVPKQRAAKAKKLVVRNPNQKIMEHARDLKERRSDLSRMEPERLQKVLAASGVGSRREMEEWITNGWITVNGKTAQLGDKVTPDDHVTVKGSIIKLKWADRLPRIILYYKQEGEIVSRDDPQGRVSIFDRLPQAASSRWVAIGRLDINTSGLLILTTSGELVQRFAHPSFEVEREYAVRVLGGLTGEQMRVLTEEGVMLEDGLAKVERIREQGGEGANKWYNVVIKEGRNREVRRIFESQGLTVSRLVRIGFGPIGLPNRLKRGQFYELNPAEVANIIKWADMLLPGERRRKKA”, the entry is “not soluble”. On to “MSRLPLLLLSVLLATPAAQASDCPDLALVLALDSSLSIDRAEFALQAEGYAEAFRSPAVQAALAAAGTVDVAAVVWSDGAAPPARLGWQRIAAPEDARRLAVRLAALERVAPGRTGVGGGLAAALEMLAGHGCAGRRLVNLSGDGRETLAPRMGLRGQLMRARAEAEALGATVNALAVTDEEADLPDWFRSHVIVGPGAFVMETREFRGFAEAVARKLVREIAPPALAAGRPGLPPHRLTPGGRDHPARRSLEHHHHHH”, for which the “soluble on expression in E. coli” value is listed as “not soluble”. As to “MAHHHHHHMSLEPTLRDLLHSKLQWIFVGGKGGVGKTTTSCALATLFASTPVHDAVTNTTRPRRVLLISTDPAHNLSDAFSQKFGKTPVPVNGMEETLFAMEVDPTTFTHGGFGAMLGFPGHIATDADAPSPFAALGNILKEAAGTLPGIDELSVFAEILRGVQQLSYDVVIFDTAPTGHTLRLLALPHTLNSTMEKLLSVEGLNTLIQAASAVLSSTTNLGDMSSLMPAFKQWRENVQEVQRQFTDAEKTAFICVCIPEFLSVYETERLVQELMKYDISCDSIVVNQLVLKPSSEPDCRMCNARQKIQSKYLAQIDSLYEDFHVVKMPLLSDEVRGVPALQRFAQFLLEPYDADRHGYIDVCGAAS”, the “soluble on expression in E. coli” value is “soluble”. Consider “MSLKPLADRIRPENFNEVFGQKHIIGEGKILDRILKSSLVPNMIFYGPPGTGKTTVANIIAKKTNKAFYKLNATTASVKDVREITDSTNTLMGRNGVLLYLDEIQNFNKKQQQSLLEFMENGSITLIASTTENPYFYVYNAILSRSTIFEFKPLESDELMKAVNRAVELIKDELKTTEIIITEDAKKYAVGVSSGDVRKTLNSIEIAVYSTKPNEEGNIFIDLETMKECTQKNVLNFDKDGDNHYDILSAFQKSIRGSDADAAVLYLAMLIKGGDLKSICRRLLVIAAEDIGLAYPQAISIVKACTDSALELGFPEARIPLAEAVILLATSPKSNSAITAVDSALRDLDTINVGSIPDYLRDGHYEGAKKLGRMQDYKYPHSYENNYVKQKYLPSNLENRRYYEYGKNKIEEKCREYWERIKEGHHHHHH”, for which the “soluble on expression in E. coli” value was “soluble”.

In the case of “MKLTPEMLTGKSREHLVNLPTTHSSNHFLQTQAVQAFQALQQSAAKNGFNLQPASSFRDFERQQLIWNSKFKGERKVHDDAGKALDLNQLDDWQKCQAILRWSALLRLVVIIGERKWIFLILIFCHEVNLYNWSLGNMKKAATSLN”, the “soluble on expression in E. coli” value was “not soluble”.
